# Test results taken from PMC2714985 (Journal of immunology (Baltimore, Md. : 1950), 2009).
# B1: LAIR-1/Fc wt fusion protein (Fc fusion, human, UniProt Q6GTX8 22-165, looked up)
# chain: QEEDLPRPSISAEPGTVIPLGSHVTFVCRGPVGVQTFRLERDSRSTYNDTEDVSQASPSESEARFRIDSVREGNAGLYRCIYYKPPKWSEQSDYLELLVKESSGGPDSPDTEPGSSAGPTQRPSDNSHNEHAPASQGLKAEHLY
# Target: rat collagen type I (rat, UniProt P02454 152-1207; P02466 86-1125)
# Experiment: SPR
# Sequence of rat collagen type I (P02454 152-1207, chain 1 of 2): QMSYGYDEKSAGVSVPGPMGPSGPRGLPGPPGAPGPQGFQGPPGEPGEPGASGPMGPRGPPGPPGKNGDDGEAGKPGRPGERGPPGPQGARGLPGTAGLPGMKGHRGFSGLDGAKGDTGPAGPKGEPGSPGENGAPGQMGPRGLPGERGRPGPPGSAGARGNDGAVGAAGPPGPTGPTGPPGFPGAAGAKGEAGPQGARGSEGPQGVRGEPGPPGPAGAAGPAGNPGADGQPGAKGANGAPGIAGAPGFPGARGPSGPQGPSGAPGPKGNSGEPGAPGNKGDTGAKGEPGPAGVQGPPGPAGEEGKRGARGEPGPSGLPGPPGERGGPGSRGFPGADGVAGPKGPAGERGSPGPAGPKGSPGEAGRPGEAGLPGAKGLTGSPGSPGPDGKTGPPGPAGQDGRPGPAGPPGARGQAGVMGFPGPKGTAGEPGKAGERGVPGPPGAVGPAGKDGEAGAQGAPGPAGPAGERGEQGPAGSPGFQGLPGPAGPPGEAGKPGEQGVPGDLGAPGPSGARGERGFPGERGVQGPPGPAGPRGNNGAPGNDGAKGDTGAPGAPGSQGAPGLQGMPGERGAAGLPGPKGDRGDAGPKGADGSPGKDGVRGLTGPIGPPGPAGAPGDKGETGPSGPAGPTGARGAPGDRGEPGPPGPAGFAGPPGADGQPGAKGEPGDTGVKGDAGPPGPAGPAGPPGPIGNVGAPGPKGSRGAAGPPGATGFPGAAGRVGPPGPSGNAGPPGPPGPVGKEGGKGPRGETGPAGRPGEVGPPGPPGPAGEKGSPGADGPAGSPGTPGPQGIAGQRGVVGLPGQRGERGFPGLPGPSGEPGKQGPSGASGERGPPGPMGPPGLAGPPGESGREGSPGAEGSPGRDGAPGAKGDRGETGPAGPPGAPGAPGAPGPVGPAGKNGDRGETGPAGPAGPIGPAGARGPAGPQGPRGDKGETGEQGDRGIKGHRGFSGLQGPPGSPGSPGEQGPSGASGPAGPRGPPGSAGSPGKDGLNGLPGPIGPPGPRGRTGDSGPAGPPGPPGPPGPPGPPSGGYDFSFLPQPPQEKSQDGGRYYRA
# Sequence of rat collagen type I (P02466 86-1125, chain 2 of 2): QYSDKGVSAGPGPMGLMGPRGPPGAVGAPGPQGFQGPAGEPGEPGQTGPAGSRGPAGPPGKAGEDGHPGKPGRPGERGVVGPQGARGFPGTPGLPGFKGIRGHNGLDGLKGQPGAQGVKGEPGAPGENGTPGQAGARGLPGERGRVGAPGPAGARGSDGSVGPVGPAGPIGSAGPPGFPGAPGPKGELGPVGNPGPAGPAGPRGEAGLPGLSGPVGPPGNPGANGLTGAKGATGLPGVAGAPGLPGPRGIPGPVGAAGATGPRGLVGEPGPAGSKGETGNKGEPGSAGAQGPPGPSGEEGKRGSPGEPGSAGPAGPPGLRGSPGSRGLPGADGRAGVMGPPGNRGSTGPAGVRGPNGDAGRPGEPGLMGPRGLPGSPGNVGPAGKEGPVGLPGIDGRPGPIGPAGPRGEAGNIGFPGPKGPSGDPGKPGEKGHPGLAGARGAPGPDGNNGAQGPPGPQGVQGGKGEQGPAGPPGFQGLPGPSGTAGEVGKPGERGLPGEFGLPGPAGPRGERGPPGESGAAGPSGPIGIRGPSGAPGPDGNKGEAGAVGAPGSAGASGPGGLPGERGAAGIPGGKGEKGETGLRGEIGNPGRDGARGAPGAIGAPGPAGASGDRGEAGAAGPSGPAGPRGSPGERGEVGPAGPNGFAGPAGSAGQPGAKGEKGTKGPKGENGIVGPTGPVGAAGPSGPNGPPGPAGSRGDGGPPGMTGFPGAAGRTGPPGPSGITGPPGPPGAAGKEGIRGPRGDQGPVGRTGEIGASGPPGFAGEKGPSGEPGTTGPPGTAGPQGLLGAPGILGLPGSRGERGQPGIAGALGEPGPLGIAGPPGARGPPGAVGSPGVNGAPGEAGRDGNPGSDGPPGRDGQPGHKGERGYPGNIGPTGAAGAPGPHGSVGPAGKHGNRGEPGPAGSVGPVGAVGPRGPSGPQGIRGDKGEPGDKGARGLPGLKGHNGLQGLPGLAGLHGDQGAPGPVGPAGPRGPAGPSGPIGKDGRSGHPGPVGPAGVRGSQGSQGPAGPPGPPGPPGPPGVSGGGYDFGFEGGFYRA
binder,measurement,value
B1,Kd,145 nM
same,koff,0.0456 s⁻¹
